# Measurements from patent US20140274782A1, “AFFINITY REAGENTS AND METHODS FOR DETECTION, PURIFICATION, AND PROTEOMIC ANALYSIS OF METHYLATED PROTEINS” (The Board of Trustees of the Leland Stanford Junior …, priority 2013, published 2014).
# T1: G9a and GLP (Homo sapiens, UniProt Q96KQ7+Q9H9B1)
# T1 sequence (Q96KQ7 2-1210 limits assumed): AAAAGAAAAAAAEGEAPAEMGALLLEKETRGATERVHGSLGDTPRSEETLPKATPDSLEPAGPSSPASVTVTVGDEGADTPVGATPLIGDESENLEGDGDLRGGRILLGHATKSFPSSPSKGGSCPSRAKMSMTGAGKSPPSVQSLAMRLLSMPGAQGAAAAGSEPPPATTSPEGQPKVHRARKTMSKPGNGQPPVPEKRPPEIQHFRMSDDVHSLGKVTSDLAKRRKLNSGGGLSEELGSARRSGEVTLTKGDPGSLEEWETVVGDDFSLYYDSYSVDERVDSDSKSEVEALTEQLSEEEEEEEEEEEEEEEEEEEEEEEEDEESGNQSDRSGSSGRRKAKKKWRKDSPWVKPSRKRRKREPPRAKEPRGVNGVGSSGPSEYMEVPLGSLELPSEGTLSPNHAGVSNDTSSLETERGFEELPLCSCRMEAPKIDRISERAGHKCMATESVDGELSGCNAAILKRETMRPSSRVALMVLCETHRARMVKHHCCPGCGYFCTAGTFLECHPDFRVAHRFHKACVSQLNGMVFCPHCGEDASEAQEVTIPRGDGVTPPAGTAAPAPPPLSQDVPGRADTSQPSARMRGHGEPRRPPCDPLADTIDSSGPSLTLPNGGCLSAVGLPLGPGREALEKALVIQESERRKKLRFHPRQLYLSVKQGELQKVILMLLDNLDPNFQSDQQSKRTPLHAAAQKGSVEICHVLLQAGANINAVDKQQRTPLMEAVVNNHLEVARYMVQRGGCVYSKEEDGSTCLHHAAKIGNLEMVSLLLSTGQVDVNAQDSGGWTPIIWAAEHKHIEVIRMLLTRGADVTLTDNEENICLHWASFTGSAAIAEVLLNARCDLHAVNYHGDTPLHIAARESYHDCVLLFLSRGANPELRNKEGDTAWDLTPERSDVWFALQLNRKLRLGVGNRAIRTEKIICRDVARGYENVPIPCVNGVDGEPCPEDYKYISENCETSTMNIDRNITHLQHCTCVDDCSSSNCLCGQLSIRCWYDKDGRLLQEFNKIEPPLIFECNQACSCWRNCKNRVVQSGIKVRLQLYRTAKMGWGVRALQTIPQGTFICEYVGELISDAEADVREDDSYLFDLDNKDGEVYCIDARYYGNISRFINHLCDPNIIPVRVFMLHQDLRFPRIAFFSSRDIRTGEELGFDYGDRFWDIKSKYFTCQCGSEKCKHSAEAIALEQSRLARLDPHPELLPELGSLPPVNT
# T1 sequence (Q9H9B1 2-1298 limits assumed): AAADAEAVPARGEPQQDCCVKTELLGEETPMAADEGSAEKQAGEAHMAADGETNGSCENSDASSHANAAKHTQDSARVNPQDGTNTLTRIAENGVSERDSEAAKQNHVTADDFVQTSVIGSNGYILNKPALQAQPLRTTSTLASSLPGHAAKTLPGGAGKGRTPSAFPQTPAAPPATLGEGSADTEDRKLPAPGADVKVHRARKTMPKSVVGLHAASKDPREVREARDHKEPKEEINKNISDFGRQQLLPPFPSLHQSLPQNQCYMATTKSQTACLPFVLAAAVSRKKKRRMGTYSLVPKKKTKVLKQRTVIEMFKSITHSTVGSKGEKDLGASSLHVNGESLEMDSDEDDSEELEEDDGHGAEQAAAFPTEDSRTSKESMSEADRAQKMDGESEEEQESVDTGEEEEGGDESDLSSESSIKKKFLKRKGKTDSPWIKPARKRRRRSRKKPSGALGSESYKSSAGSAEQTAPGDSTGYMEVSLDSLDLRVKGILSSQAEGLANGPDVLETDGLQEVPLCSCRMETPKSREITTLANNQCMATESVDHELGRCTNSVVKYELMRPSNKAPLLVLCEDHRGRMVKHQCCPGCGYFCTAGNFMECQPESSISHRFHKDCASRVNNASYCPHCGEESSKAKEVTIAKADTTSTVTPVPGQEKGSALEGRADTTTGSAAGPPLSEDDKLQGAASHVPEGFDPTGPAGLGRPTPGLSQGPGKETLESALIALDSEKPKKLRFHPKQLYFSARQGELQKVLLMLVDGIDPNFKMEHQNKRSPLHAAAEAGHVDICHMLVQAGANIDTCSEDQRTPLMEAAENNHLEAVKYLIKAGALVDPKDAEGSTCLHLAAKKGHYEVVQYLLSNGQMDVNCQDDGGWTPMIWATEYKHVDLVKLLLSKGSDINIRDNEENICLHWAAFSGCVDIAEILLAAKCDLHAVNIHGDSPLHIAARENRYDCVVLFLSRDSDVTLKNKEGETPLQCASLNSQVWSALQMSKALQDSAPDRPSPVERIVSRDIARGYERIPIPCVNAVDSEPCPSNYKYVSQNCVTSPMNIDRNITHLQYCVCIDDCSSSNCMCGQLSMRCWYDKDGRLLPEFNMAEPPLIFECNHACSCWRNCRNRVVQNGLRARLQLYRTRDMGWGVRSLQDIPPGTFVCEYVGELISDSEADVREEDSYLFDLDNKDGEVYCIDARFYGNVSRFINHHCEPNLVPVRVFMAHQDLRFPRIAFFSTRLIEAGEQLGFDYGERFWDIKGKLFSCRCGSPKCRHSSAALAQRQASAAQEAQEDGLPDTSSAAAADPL
# Experiments:
# [1] = molecular target: T1, G9a and GLP; experiment: Triple SILAC pull-down after UNC0638 treatment of 293T cells, DMSO/UNC0638 ratio of protein captured by 3×MBT; format: cell-based; parameters: endogenous in cells; host or cells: HEK 293T; details: for Relative to UNC0638 UNC Heavy / Relative to UNC0638 UNC Light: SILAC ratio DMSO/UNC0638 of protein pulled down with 3xMBT; for Relative to UNC0638 UNC Heavy: UNC0638 in heavy SILAC media; for Relative to UNC0638 UNC Light: UNC0638 in light SILAC media; for Relative to UNC0638 Average: average of UNC Light and UNC Heavy experiments;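 as to all read-outs here: mass spectrometry (Q-Exactive) SILAC quantitation, DMSO/UNC0638 ratio computed after subtracting 3×MBTD355N mutant pull-down background, only proteins with at least twofold 3×MBT over mutant signal considered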
# [2] = tested on: 3×MBT domain of L3MBTL1; experiment: Triple SILAC pull-down, 3xMBT/3xMBTD355N ratio (cytoplasmic, nuclear and chromatin fractions of 293T cells); format: binding, human; details: SILAC ratio, pull-down 3xMBT vs 3xMBTD355N; for 3xMBT/D355N UNC Heavy: experiment with UNC0638 in heavy SILAC media; for 3xMBT/D355N UNC Light: experiment with UNC0638 in light SILAC media;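 as to all read-outs here: proteins quantified with MaxQuant, requiring at least two unique peptides and quantification in both label directions, normalized to the mean of proteins from a digested loading control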
Relative to UNC0638 UNC Heavy [1],Relative to UNC0638 UNC Light [1],Relative to UNC0638 Average [1],Molecule,3xMBT/D355N UNC Heavy [2],3xMBT/D355N UNC Light [2]
−0.17 log base 2,0.61 log base 2,0.22 log base 2,"HNRNPUL1 (protein, UniProt Q9BUJ2 1-856, looked up) Heterogeneous nuclear …: MDVRRLKVNELREELQRRGLDTRGLKAELAERLQAALEAEEPDDERELDADDEPGRPGHINEEVETEGGSELEGTAQPPPPGLQPHAEPGGYSGPDGHYAMDNITRQNQFYDTQVIKQENESGYERRPLEMEQQQAYRPEMKTEMKQGAPTSFLPPEASQLKPDRQQFQSRKRPYEENRGRGYFEHREDRRGRSPQPPAEEDEDDFDDTLVAIDTYNCDLHFKVARDRSSGYPLTIEGFAYLWSGARASYGVRRGRVCFEMKINEEISVKHLPSTEPDPHVVRIGWSLDSCSTQLGEEPFSYGYGGTGKKSTNSRFENYGDKFAENDVIGCFADFECGNDVELSFTKNGKWMGIAFRIQKEALGGQALYPHVLVKNCAVEFNFGQRAEPYCSVLPGFTFIQHLPLSERIRGTVGPKSKAECEILMMVGLPAAGKTTWAIKHAASNPSKKYNILGTNAIMDKMRVMGLRRQRNYAGRWDVLIQQATQCLNRLIQIAARKKRNYILDQTNVYGSAQRRKMRPFEGFQRKAIVICPTDEDLKDRTIKRTDEEGKDVPDHAVLEMKANFTLPDVGDFLDEVLFIELQREEADKLVRQYNEEGRKAGPPPEKRFDNRGGGGFRGRGGGGGFQRYENRGPPGGNRGGFQNRGGGSGGGGNYRGGFNRSGGGGYSQNRWGNNNRDNNNSNNRGSYNRAPQQQPPPQQPPPPQPPPQQPPPPPSYSPARNPPGASTYNKNSNIPGSSANTSTPTVSSYSPPQPSYSQPPYNQGGYSQGYTAPPPPPPPPPAYNYGSYGGYNPAPYTPPPPPTAQTYPQPSYNQYQQYAQQWNQYYQNQGQWPPYYGNYDYGSYSGNTQGGTSTQ",2.97 log base 2,3.07 log base 2
0.11 log base 2,0.35 log base 2,0.23 log base 2,"SAFB (protein, UniProt Q15424 2-915, looked up) Scaffold attachment factor B1: AETLSGLGDSGAAGAAALSSASSETGTRRLSDLRVIDLRAELRKRNVDSSGNKSVLMERLKKAIEDEGGNPDEIEITSEGNKKTSKRSSKGRKPEEEGVEDNGLEENSGDGQEDVETSLENLQDIDIMDISVLDEAEIDNGSVADCVEDDDADNLQESLSDSRELVEGEMKELPEQLQEHAIEDKETINNLDTSSSDFTILQEIEEPSLEPENEKILDILGETCKSEPVKEESSELEQPFAQDTSSVGPDRKLAEEEDLFDSAHPEEGDLDLASESTAHAQSSKADSLLAVVKREPAEQPGDGERTDCEPVGLEPAVEQSSAASELAEASSEELAEAPTEAPSPEARDSKEDGRKFDFDACNEVPPAPKESSTSEGADQKMSSPEDDSDTKRLSKEEKGRSSCGRNFWVSGLSSTTRATDLKNLFSKYGKVVGAKVVTNARSPGARCYGFVTMSTAEEATKCINHLHKTELHGKMISVEKAKNEPVGKKTSDKRDSDGKKEKSSNSDRSTNLKRDDKCDRKDDAKKGDDGSGEKSKDQDDQKPGPSERSRATKSGSRGTERTVVMDKSKGVPVISVKTSGSKERASKSQDRKSASREKRSVVSFDKVKEPRKSRDSESHSRVRERSEREQRMQAQWEREERERLEIARERLAFQRQRLERERMERERLERERMHVEHERRREQERIHREREELRRQQELRYEQERRPAVRRPYDLDRRDDAYWPEAKRAALDERYHSDFNRQDRFHDFDHRDRGRYPDHSVDRREGSRSMMGEREGQHYPERHGGPERHGRDSRDGWGGYGSDKRMSEGRGLPPPPRRDWGDHGRREDDRSWQGTADGGMMDRDHKRWQGGERSMSGHSGPGHMMNRGGMSGRGSFAPGGASRGHPIPHGGMQGGFGGQSRGSRPSDARFTRRY",2.38 log base 2,2.76 log base 2
0.37 log base 2,0.07 log base 2,0.22 log base 2,"ADAR (protein, UniProt P55265 1-1226, looked up) Double-stranded RNA-specific …: MNPRQGYSLSGYYTHPFQGYEHRQLRYQQPGPGSSPSSFLLKQIEFLKGQLPEAPVIGKQTPSLPPSLPGLRPRFPVLLASSTRGRQVDIRGVPRGVHLRSQGLQRGFQHPSPRGRSLPQRGVDCLSSHFQELSIYQDQEQRILKFLEELGEGKATTAHDLSGKLGTPKKEINRVLYSLAKKGKLQKEAGTPPLWKIAVSTQAWNQHSGVVRPDGHSQGAPNSDPSLEPEDRNSTSVSEDLLEPFIAVSAQAWNQHSGVVRPDSHSQGSPNSDPGLEPEDSNSTSALEDPLEFLDMAEIKEKICDYLFNVSDSSALNLAKNIGLTKARDINAVLIDMERQGDVYRQGTTPPIWHLTDKKRERMQIKRNTNSVPETAPAAIPETKRNAEFLTCNIPTSNASNNMVTTEKVENGQEPVIKLENRQEARPEPARLKPPVHYNGPSKAGYVDFENGQWATDDIPDDLNSIRAAPGEFRAIMEMPSFYSHGLPRCSPYKKLTECQLKNPISGLLEYAQFASQTCEFNMIEQSGPPHEPRFKFQVVINGREFPPAEAGSKKVAKQDAAMKAMTILLEEAKAKDSGKSEESSHYSTEKESEKTAESQTPTPSATSFFSGKSPVTTLLECMHKLGNSCEFRLLSKEGPAHEPKFQYCVAVGAQTFPSVSAPSKKVAKQMAAEEAMKALHGEATNSMASDNQPEGMISESLDNLESMMPNKVRKIGELVRYLNTNPVGGLLEYARSHGFAAEFKLVDQSGPPHEPKFVYQAKVGGRWFPAVCAHSKKQGKQEAADAALRVLIGENEKAERMGFTEVTPVTGASLRRTMLLLSRSPEAQPKTLPLTGSTFHDQIAMLSHRCFNTLTNSFQPSLLGRKILAAIIMKKDSEDMGVVVSLGTGNRCVKGDSLSLKGETVNDCHAEIISRRGFIRFLYSELMKYNSQTAKDSIFEPAKGGEKLQIKKTVSFHLYISTAPCGDGALFDKSCSDRAMESTESRHYPVFENPKQGKLRTKVENGEGTIPVESSDIVPTWDGIRLGERLRTMSCSDKILRWNVLGLQGALLTHFLQPIYLKSVTLGYLFSQGHLTRAICCRVTRDGSAFEDGLRHPFIVNHPKVGRVSIYDSKRQSGKTKETSVNWCLADGYDLEILDGTRGTVDGPRNELSRVSKKNIFLLFKKLCSFRYRRDLLRLSYGEAKKAARDYETAKNYFKKGLKDMGYGNWISKPQEEKNFYLCPV",2.00 log base 2,2.47 log base 2
